# Measurements published in patent publication US12338291B2, “Humanized antibody molecules to CD138 and uses thereof” (VISTERRA, INC., priority 2019, dated 2025).
# What was measured:
# [1] = Differential scanning fluorescence (DSF) thermal stability; type: physicochemical; conditions: PBS pH 7.4, 25-95 °C, first thermal transition
# Description: Thermal stability represents an important property of antibodies and is used as a predictive surrogate of pharmaceutical drug stability in humans based on a relative stability profile as characterized by differential thermal melting profiles. Several methods exist for evaluation of product stability based on thermal melting. These include, for example, circular dichroism (CD), differential scanning calorimetry (DSC), and differential scanning fluorescence (DSF), among others. In this example, the thermal stabilities of select humanized anti-CD138 antibodies were evaluated by DSF. DSF was used to monitor the conformational stability of a protein as it was exposed to increasing thermal stress. The dye, SYPRO Orange®, fluoresces in a hydrophobic environment, such as hydrophobic core residues that are exposed during thermally triggered protein unfolding, or denaturation. In brief, SYPRO® Orange Dye (Sigma Chemical) was diluted 1:500 in phosphate buffered saline (PBS), pH 7.4, without addition of any detergents. Antibodies were likewise diluted in PBS to a target concentration of 0.5 mg/mL. 15 μl of diluted antibody and fluorescent dye were added 1:1 (v/v) into a 96 well microtiter plate and thoroughly mixed by repeat pipetting. Thermal scans were carried out using a real-time quantitative PCR (qPCR) thermal cycler with fluorescence detection capabilities. Scans were initiated at 25° C. with incremental increase in well temperature of 1° C. ramp/minute from 25° C. to 95° C. The mid-point (Tm) between native state and the first unfolding event was reported as the transition temperature or melt temperature (TM). TMs were then calculated based on transformation of the data using the first derivative of the fluorescence signal versus time. (dfluoresence/dtime) (FIG. 7).
# MM1.S (Luc) cells = experiment: MM.1S Luc xenograft multiple myeloma model in C.B-17 SCID mice, dose escalation (Example 7); type: in vivo
# [2] = Antibody production titers in Chinese hamster ovary cells; conditions: CHO transient transfection, after Protein A purification
# Description: The yields represent antibody amounts following purification from cell culture media by Protein A affinity chromatography, carried out under identical transfection conditions and culture scale. Differential pre-purification titers based on quantification using Protein-A biosensors (bio-layer interferometry) of antibody in culture media was also noted likewise indicating differential expression levels (antibody titers).
molecule,measurement,setting,value
"mAb 2810: parental mouse-human chimeric anti-CD138 antibody; VH SEQ ID NO: 296, VL SEQ ID NO: 292 (antibody, V domains shown) VH: QVQLHQPGTSLVKPGASVKLSCKASGYSFSSYYMHWVKQRPGQGLEWIGTIHPSDSTTNYNQKFKGKATLTVDKSSRTAYMQLNSLTFEDSAVYYCANFVYWGQGTSVTVSS VL: DIVITQDELSNPVTSGDSVSISCRSSKSLLYKDGKTYLNWFLQRPGQSPQLLIYVVSTRASGVSDRFSGSGSGTDFTLEISRVKAEDVGVYYCQQLVEYPYTFGGGTKLEIK",TM1,[1],61.9 °C
same,Median % T/C (whole body BLI),"MM1.S (Luc) cells; day 35, vs vehicle control",13.1%
same,Tumor growth delay (time to median BLI of 1.0×10^9 p/s) relative to vehicle control,"MM1.S (Luc) cells; i.p. twice weekly, mAb 4320 4, 8, 16 mg/kg, mAb 2810 4 mg/kg",6.6 days
same,Expression,[2],30.2 mg/L
